Data reported in doi:10.1101/2020.02.12.945170 (2020).
Square brackets hold non-standard residues; d marks the D form. Ends that are not written are not given here. * marks the point of attachment. Biotin = O=C1N[C@H]2[C@H](CS[C@H]2CCCCC(=O)*)N1; pY = N[C@@H](Cc1ccc(OP(=O)(O)O)cc1)C(=O)O

B1: ITAM3 C (C-monophosphorylated CD3ζ ITAM3 peptide) (peptide)
peptide: Biotin-GKGHDLLYQGLSTATKDT[pY]DALHMQ
B2: ZAP70 tSH2-GFP (tandem SH2 domains of human ZAP70, amino acids 1-264, with C-terminal GFP) (domain or fragment)
chain: MPDPAAHLPFFYGSISRAEAEEHLKLAGMADGLFLLRQCLRSLGGYVLSLVHDVRFHHFPIERQLNGTYAIAGGKAHCGPAELCEFYSRDPDGLPCNLRKPCNRPSGLEPQPGVFDCLRDAMVRDYVRQTWKLEGEALEQAIISQAPQVEKLIATTAHERMPWYHSSLTREEAERKLYSGAQTDGKFLLRPRKEQGTYALSLIYGKTVYHYLISQDKAGKYCIPEGTKFDTLWQLVEYLKLKADGLIYCLKEACPNSSASNASG
B3: ITAM3 N (N-monophosphorylated CD3ζ ITAM3 peptide) (peptide)
peptide: Biotin-GKGHDLL[pY]QGLSTATKDTYDALHMQ

Key:
[1] = biological target: B2; experiment: SPR
[2] = biological target: B2; experiment: SPR; 37°C
[3] = biological target: T1, Avi-CD3ζ ITAM3 (full intracellular tail of CD3ζ, amino acids 52-164, all tyrosines mutated to Ala except the … (UniProt P20963-1 52-164, biotin on the Avitag; tyrosines of ITAM3 phosphorylated in vitro by Lck); experiment: SPR; phosphorylated on ITAM3; dissociation phase fit
T1 sequence (P20963 52-164, change not shown): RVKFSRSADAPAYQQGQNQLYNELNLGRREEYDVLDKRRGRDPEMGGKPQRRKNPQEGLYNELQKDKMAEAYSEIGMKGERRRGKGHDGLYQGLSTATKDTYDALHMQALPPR

[4] = biological target: T1, Avi-CD3ζ ITAM3 (full intracellular tail …); experiment: SPR; phosphorylated on ITAM3; from kobs plot intercept
[5] = biological target: B2; experiment: SPR
[6] = biological target: B2; experiment: SPR; 37°C
[7] = biological target: B2; experiment: single-particle tracking TIRF

| Kd [1] [µM] | Kd [2] [µM] | koff [3] [s⁻¹] | koff [4] [s⁻¹] | koff [5] [s⁻¹] | koff [6] [s⁻¹] | koff [7] [s⁻¹] | Binder |
| --- | --- | --- | --- | --- | --- | --- | --- |
| 7.52 | 7.52 |  |  |  |  |  | B1 |
|  |  | 0.25 | 0.21 |  |  |  | B2 |
| 20.7 | 20.7 |  |  | 5.5 | 5.5 | 4.8 | B3 |
